Results: patent CN102050878A (NAT ENGINEERING RES CT OF ANTIBODY MEDICINE SHANGHAI CO LTD, dated 2011)

Target: T1, 人CD20 (Raji细胞表面) (human, UniProt P11836 1-297)
T1 construct: whole, on cells; The target is native on the B lymphoma lines Raji (and Daudi); No recombinant CD20 was used; also called 高表达CD20的Raji细胞
T1 sequence (looked up): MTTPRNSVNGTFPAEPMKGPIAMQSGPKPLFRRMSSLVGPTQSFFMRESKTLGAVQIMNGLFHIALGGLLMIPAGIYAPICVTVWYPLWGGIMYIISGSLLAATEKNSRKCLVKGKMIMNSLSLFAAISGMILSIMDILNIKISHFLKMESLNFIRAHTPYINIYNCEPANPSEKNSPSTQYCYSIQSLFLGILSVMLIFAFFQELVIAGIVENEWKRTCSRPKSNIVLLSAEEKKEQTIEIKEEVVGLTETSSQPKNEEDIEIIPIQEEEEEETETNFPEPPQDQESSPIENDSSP
Test: in vitro antigen binding assay, flow cytometry on Raji cells

B1: 抗人CD20人源化抗体hu3D9 (hu3D9Hb/hu3D9Lb) (antibody, human IgG1, kappa, V domains shown)
VH: EVQLVESGGGLVQPGGSLRLSCAASGYTFTNYWMQWVRQAPGQGLEWISAIYPGDGDTRYTQKFKGRATLSADKSKNTAYLQMNSLRAEDTAVYYCAREGAYGYDDGMDYWGQGTLVTVSS
VL: DIVLTQSPSSLSASVGDRVTITCRASQSIRNNLHWYQQKPGKAPKLLIKYASQSISGVPSRFSGSGSGTDFTLTISSLQPEDFATYYCQQSNSWPLTFGQGTKVEIKR
notes: Humanised antibody with 12 mouse framework residues kept
  binding result: binds
